The test concerns the target T1, human LAG-3(ECD)-mFc (human, UniProt P18627 23-450).
T1 construct: also called hLAG3-mFc; human LAG-3 extracellular domain (ECD) fused to mouse Fc; not shown: mouse Fc
T1 sequence: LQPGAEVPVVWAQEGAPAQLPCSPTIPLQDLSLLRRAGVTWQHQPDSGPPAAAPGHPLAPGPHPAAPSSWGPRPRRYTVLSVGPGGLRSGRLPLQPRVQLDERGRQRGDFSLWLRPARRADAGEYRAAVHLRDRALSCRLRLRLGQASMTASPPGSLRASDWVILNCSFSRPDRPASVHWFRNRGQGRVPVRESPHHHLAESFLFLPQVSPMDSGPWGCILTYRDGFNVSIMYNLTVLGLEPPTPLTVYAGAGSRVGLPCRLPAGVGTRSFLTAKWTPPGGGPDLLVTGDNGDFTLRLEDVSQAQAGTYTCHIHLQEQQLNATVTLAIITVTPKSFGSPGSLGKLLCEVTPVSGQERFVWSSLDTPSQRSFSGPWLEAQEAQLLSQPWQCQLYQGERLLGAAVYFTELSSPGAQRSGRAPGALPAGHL
The experiment in a line: ELISA: chimeric IgG1 B12 with hLAG3-mFc in solution, captured on anti-human IgG, anti-mouse IgG-HRP. The procedure:
FIGS. 5A-5D show the effect of competition peptides on LAG-3 binding to anti-LAG-3 mAbs. […] B5/IgG4 was preincubated with a competition peptide for 30 minutes. Then human LAG-3 extracellular domain (ECD) fused to mouse Fc (hLAG3-mFc) was added (the final peptide concentration was 600-fold that of hLAG3-mFc) and the mixture was incubated for 60 minutes before being added to an ELISA plate coated with anti-human IgG. The incubation was carried out at 4° C. overnight. After washing, the hLAG3-mFc bound to the immobilized B5/IgG4 on the ELISA plate was detected by adding anti-mouse IgG conjugated to horseradish peroxidase (HRP) and incubating for 60 minutes. Then, after washing, the ELISA was developed using One-step Detection Solution and measured as the absorbance at 450 nm.
Anti-human IgG in carbonate coating buffer was coated on an ELISA plate at 4° C. (50 μL/well at 1 μg/mL) overnight. […] The plate was washed and the binding of hLAG3-mFc to the immobilized anti-LAG-3 mAb was detected by adding anti-mouse IgG conjugated to horseradish peroxidase ([…]) (ThermoFisher Scientific, Cat#: A16084; Waltham, Mass.) and incubating for 60 minutes.
(An ELISA detects its analyte on a solid surface through an enzyme-linked reagent.)

B1: B12 (human IgG1 heavy chain and kappa light chain chimeric) (antibody, V domains shown)
VH: EVKLLESGGSLVQPGGSLKLSCAASGFDFSRYWMSWVRQAPGKGLEWIGEINPDSSTINYTPSLRDEFIISRDNAKNTLFLQMSKVISEDTALYYCARITSGYYFDYWGQGTTLTVSS
VL: DVVMTQTPLSLPVSLGDQASISCRSSQTIVYSNGNTYLYWYLQKPGQSPKLLIYRVSNRFPGVPDRFSGSGSGTDFTLKISGVEAEDMGVYYCFQGTHVPFTFGSGTKLEMK
notes: Chimeric: mouse VH and VL with human IgG1 heavy chain and kappa light chain constant regions
Turning to B1, the binding result is given as “binds”.

The values above are taken from patent US20210032331A1 (PHANES THERAPEUTICS, published 2021).
